According to patent US6506732B1, “Enzymatic hydrolysate of milk proteins” (Universite Laval, priority 1999, dated 2003):

Assay: Hydrophobicity of peptides of subfraction SF4
Assay type: physicochemical
Conditions: single peptides of subfraction SF4
Description: Further separation of the third fraction (F3) on preparative High Pressure Liquid Chromatography (HPLC) using TSK G2000 SW column and a 5 mM ammonium acetate buffer mobile phase adjusted to pH 6.5 gives five subfractions (SF1 to SF5). Composition of subfraction four (SF4), obtained by RP-HPLC using C-18™ column, containing fifteen peptides having average molecular weight of 900 daltons (200 to 1400 daltons) and average hydrophobicity of 11.7 Kcal/mole (5 to 20 Kcal/mole) is presented in Table 2.

| Substance | Hydrophobicity [kcal/mol] |
| --- | --- |
| VPLGTQY (Peptide from enzymatic hydrolysate of milk proteins) [Casein α-s1 167-173, peptide of SF4] | 9.9 |
| VLVL (Peptide from enzymatic hydrolysate of milk proteins) [β-Lactoglobulin 92-95, peptide of SF4] | 8.2 |
| VLPVPQK (Peptide from enzymatic hydrolysate of milk proteins) [Casein β 170-176, peptide of SF4] | 12.3 |
| SPAQILQWQVL (Peptide from enzymatic hydrolysate of milk proteins) [Casein κ 69-79, peptide of SF4] | 15.5 |
| LQSW (Peptide from enzymatic hydrolysate of milk proteins) [Casein β 140-143, peptide of SF4] | 5.3 |
| YVPLGTQY (Peptide from enzymatic hydrolysate of milk proteins) [Casein α-s1 166-173, peptide of SF4] | 12.7 |
| YL: Casein α-s1 91-92, peptide of SF4 (UniProt P02662 106-107, looked up, fragment) | 5.3 |
| QGPIVLNPW (Peptide from enzymatic hydrolysate of milk proteins) [Casein α-s2 101-109, peptide of SF4] | 15.1 |
| ALPQYL (Peptide from enzymatic hydrolysate of milk proteins) [Casein α-s2 175-180, peptide of SF4] | 10.9 |
| YGLNYYQQKPVA (Peptide from enzymatic hydrolysate of milk proteins) [Casein κ 38-49, peptide of SF4] | 14.4 |
| LLY (UniProt P02666 206-208, looked up, fragment) [Casein β 191-193, peptide of SF4] | 7.7 |
| INNQFLPYPY (Peptide from enzymatic hydrolysate of milk proteins) [Casein κ 51-60, peptide of SF4] | 19.9 |
| LYQEPVL (Peptide from enzymatic hydrolysate of milk proteins) [Casein β 192-198, peptide of SF4] | 9.3 |
| IPIQY (Peptide from enzymatic hydrolysate of milk proteins) [Casein κ 26-30, peptide of SF4] | 11.3 |
| LYQGPIVL (Peptide from enzymatic hydrolysate of milk proteins) [Casein α-s2 99-106, peptide of SF4] | 17.7 |
